Reference: US11110182B2, “Multifunctional RNA nanoparticles and methods for treating cancer and therapeutic resistant cancer” (University of Cincinnati, priority 2016, dated 2021)

B1: pRNA-HER2apt-siMED1: 3-WJ pRNA nanoparticle bearing a HER2-targeting RNA aptamer and two different MED1 siRNAs; strands p1 SEQ ID NO: 3, p2 SEQ ID NO: 4 (nucleic acid)
chain 1: GGACAGUGAAAGUGAGUCAAAGGAUCAAUCAUGGCCAAAGAUGUUACUUUGAGAGCCUU
chain 2: GGCUCUCAAAGUAACAUCUAAGGCCAUGUGUAUGUGGGGGGAGGACGAUGCGGUCUGCUGUGCUUGAUAUGCCCCAGACGACUCGCCCCCCACAUACUUUGUUGAUCCAAUGACUCACUUUCACUGUCCUU
modifications: 2'-F modification; third strand may lack entry; pRNA-HER2apt-siMED1, p1; pRNA-HER2apt-siMED1, p2
B2: pRNA-HER2apt^mut-siMED1: control pRNA nanoparticle with mutant HER2 aptamer; strands p1 SEQ ID NO: 5, p2 SEQ ID NO: 6 (nucleic acid)
chain 1: B1 chain 1
chain 2: GGCUCUCAAAGUAACAUCUAAGGCCAUGUGUAUGUGGGAUGAGGAGUAUGAAGAUACCUGUACUUGAUAUGCCCCAGACGACAUUCCCCCCACAUACUUUGUUGAUCCAAUGACUCACUUUCACUGUCCUU
modifications: pRNA-HER2apt(mut)-siMED1, p1; pRNA-HER2apt(mut)-siMED1, p2

Columns and labels:
BT474 cells = assay: Transwell migration and invasion assay, BT474 cells; format: cell-based, human; details: for invasion ability: Matrigel-coated transwell
Experimental: (§1) FIG. 3A) BT474 cells were incubated with 10 μg/mL control and pRNA-HER2apt-siMED1 nanoparticles for 48 h, and MED1 mRNA level was determined by real-time PCR. FIG. 3B) BT474 cells were incubated directly with (as indicated by -) or transfected with indicated pRNAs using lipofectamine 2000. At 48 h post treatment, MED1 protein levels were determined by western blotting. FIG. 3C) BT474 cells were treated with 10 μg/mL pRNA nanoparticles for 48 h and assayed for cell viability by MTT assay. FIG. 3D) Cells were treated as above and seeded for migration, and FIG. 3E) invasion transwell assays. Scale bar: 50 μm. FIG. 3F) After pRNA treatment for 48 h, the mRNA levels of ERα target genes TFF-1, FIG. 3G) c-Myc, and FIG. 3H) cyclin D1 in BT474 cells were determined by real-time PCR.
FIG. 4A) BT474 cells were treated with pRNA nanoparticles in combination with vehicle or 1 μM 4-hydroxy-tamoxifen (4-OHT) as indicated for 48 h, and assayed for cell viability by MTT assay. FIG. 4B) Cells were treated as above and the migration and FIG. 4C) invasion capabilities were examined. FIG. 4D) Cells were treated as above and assayed for in vitro mammosphere formation. FIG. 4E) The number of mammospheres was counted, and FIG. 4F) the mammosphere size was calculated. Scale bar: 10 μm.
FIG. 11. […] BT474 cells were treated with pRNA nanoparticles alone or together with 1 μM 4-hydroxy-tamoxifen (4-OHT) for 48 h. Cell migration and invasion were then examined using transwell assay. Photos were recorded using an Olympus SZX12 microscope. Scale bar: 100 μm.
Migration and metastasis assay. The 8-μm-pore-size polycarbonate membrane, which separates the two chambers of a 6.5-mm Transwell (Costar), was coated with or without 1:8 DMEM-diluted Matrigel (Corning). Transwell assay was performed as previously described.^57 Briefly, BT474 cells were treated with pRNAs alone or together with 4-hydroxy-tamoxifen (4-OHT) for 48 h and starved with serum-free DMEM containing 0.2% BSA overnight. On the next day, cells were collected and 2×10^5 cells were seeded to the upper chamber of Transwell. The lower chamber was filled with 600 μL DMEM medium containing 10% FBS. After incubation at 37° C. for 24 h, cells on the membranes were fixed and stained with 0.1% crystal violet in 20% ethanol solution. Cells at top side of membranes were removed completely, and cells at the bottom side were examined with an Olympus SZX12 microscope and counted. • Mammosphere culture and breast cancer stem cell analyses. BT474 cells were treated with pRNAs for 48 h. Then, cells were suspended in DMEM/F12 medium supplemented with 1×B27 (Thermo Fisher), 20 ng/mL bFGF and 20 ng/mL EGF (R&D), and added into 24-well ultralow attachment plates. After treatment with or without 1 μM 4-OHT for 7 days, mammosphere formation was recorded using an Axiovert S100 TV inverted microscope (Zeiss). Xenograft tumor tissues were cut into small pieces and digested with trypsin and collagenase at 37° C. for 1 h, and tumor cells were collected and rinsed with pre-cold PBS. All cells were stained with FITC-conjugated anti-CD44 antibody and PE-conjugated anti-CD24 antibody (BD Pharmingen) in the dark on ice for 30 min. After resuspension with 0.5 mL PBS buffer, CD44^+/CD24^−/low cell population was analyzed by flow cytometry. • Orthotopic xenograft breast tumor mouse model, in vivo imaging and anti-tumor therapy. […]

MED1 = MED1 protein level by western blotting in BT474 cells; format: cell-based, human; details: 48 h; for MED1 protein level after transfection with lipofectamine 2000: BT474, transfected
Experimental: as §1
FIG. 7A) Six HER2-targeting RNA aptamers were selected from previous literatures, and their secondary structures were predicted using Srna-fold software. FIG. 7B) Six p2 strands containing the six different HER2 RNA aptamers were synthesized and annealed with the same p1 strand to generate six different pRNA-HER2apt-MED1 siRNA nanoparticles, respectively, followed by examination using 8% native PAGE gel electrophoresis. FIG. 7C) BT474 cells were treated with above pRNA nanoparticles for 48 h, and then MED1 protein level was determined by western blotting. […] FIG. 7D) 1 μg pRNA nanoparticles were incubated with recombinant Dicer enzyme (Genlantis) at 37° C. for 12 h, the product was separated by 8% native PAGE gel.
FIG. 9A) BT474 cells were treated with different concentrations of pRNA nanoparticles as indicated for 48 h. After that, MED1 protein level was determined by western blots, and FIG. 9B) the cell viability was determined by MTT assay.
Cell culture. Human breast cancer luciferase-overexpressing BT474 and MDA-MB-231 cells were maintained in DMEM medium (Hyclone, Thermo Scientific) supplemented with 10% fetal bovine serum (FBS, Sigma) and 1% penicillin/streptomycin (Corning) at 37° C. in a humidified atmosphere with 5% CO2.^53 • Generation of pRNA nanoparticles. The two strands of pRNA were synthesized with the DNA templates, which were amplified with overlapping primers (Sigma) by PCR methods, using a T7 promoter-controlled in vitro RNA transcription system as previously described^33 (Table 1). All the CTP and UTP used for synthesis of the pRNA nanoparticles were 2′-fluoro modified, except the control unmodified pRNA nanoparticles used in the stability assays. Following an overnight transcription at 37° C., RNA strands were purified using RNA clean and concentrator kits (ZYMO research) and examined by 8 M urea denatured 8% PAGE gel. pRNA nanoparticles were assembled by mixing the equal molar amounts of p1 and p2 strands and gradually annealing from 90° C. to 20° C. in 1×RNA annealing buffer containing 50 mM Tris-HCl (pH 7.5), 50 mM NaCl and 1 mM EDTA on a PCR machine. […] The hydrodynamic diameter and Tm value of pRNA nanoparticles were determined using dynamic light scattering and TGGE assay, respectively, as previously described.^54 The AFM imaging of the pRNA nanoparticles was performed at the University of Nebraska Medical Center imaging facility as previously reported.^55 Briefly, the pRNA nanoparticles (5 μL) were deposited on APS modified mica ^56 for a total of 2 min of incubation time. […]

[1] = BT474, in combination with 1 μM 4-hydroxy-tamoxifen, 48 h

Molecule	invasion ability (BT474 cells; BT474, 48 h treatment)	migration ability (BT474 cells; BT474, 48 h treatment, transwell without Matrigel)	effect on tamoxifen inhibition of invasion (BT474 cells; [1])	effect on tamoxifen inhibition of migration (BT474 cells; [1])	dose dependence of decrease of MED1 protein level (MED1; BT474, different concentrations)	MED1 protein level (MED1; BT474, direct incubation)	MED1 protein level after transfection with lipofectamine 2000 (MED1)
B1	specifically suppressed	specifically suppressed	significantly enhanced the inhibitory effects of tamoxifen	significantly enhanced the inhibitory effects of tamoxifen	dose-dependent manner	greatly reduced	MED1 silencing
B2	not	–	–	–	–	–	MED1 silencing
